According to US20140072613A1 (published 2014):

Experiments:
Experiment in all cases: cell-based or functional assay
Aurora-B(h) = Aurora-B(h) (human, UniProt Q96GD4 1-344)
MRCKβ(h) = target: T1, MRCKβ(h) (human, UniProt Q9Y5S2 1-473, limits assumed)
T1 sequence (looked up): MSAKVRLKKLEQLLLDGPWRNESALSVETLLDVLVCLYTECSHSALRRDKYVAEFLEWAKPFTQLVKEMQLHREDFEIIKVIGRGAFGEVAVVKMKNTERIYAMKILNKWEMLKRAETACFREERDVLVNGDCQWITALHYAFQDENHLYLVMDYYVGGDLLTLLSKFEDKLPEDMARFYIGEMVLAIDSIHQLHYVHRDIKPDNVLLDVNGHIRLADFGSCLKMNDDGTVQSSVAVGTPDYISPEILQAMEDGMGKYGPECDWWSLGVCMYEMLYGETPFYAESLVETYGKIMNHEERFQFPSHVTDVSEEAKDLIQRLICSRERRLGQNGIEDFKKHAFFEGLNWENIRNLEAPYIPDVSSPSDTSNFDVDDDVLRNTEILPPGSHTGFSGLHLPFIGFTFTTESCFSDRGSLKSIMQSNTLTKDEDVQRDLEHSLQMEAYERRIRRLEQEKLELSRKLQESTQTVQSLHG

Met(M1268T)(h) = Met(M1268T)(h) (human, UniProt P08581-2 974-1408, limits assumed)
EphA8(h) = target: T2, EphA8(h) (human, UniProt P29322 564-1005, limits assumed)
T2 sequence (looked up): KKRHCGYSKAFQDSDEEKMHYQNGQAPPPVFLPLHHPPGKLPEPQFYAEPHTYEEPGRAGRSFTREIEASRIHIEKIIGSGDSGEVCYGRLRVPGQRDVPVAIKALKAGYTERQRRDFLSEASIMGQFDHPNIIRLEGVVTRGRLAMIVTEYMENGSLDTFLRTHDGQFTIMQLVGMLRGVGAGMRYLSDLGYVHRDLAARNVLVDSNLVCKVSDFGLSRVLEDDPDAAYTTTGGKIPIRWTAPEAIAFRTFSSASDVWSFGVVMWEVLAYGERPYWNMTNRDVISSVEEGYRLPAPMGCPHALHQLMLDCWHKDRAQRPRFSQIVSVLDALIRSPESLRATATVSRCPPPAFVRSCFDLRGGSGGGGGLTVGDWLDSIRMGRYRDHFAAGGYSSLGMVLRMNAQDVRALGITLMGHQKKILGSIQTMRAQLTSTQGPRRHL

PTK5(h) = PTK5(h) (human, UniProt P42685 1-505, limits assumed)
IGF-1R(h) = IGF-1R(h) (human, UniProt P08069 959-1367, limits assumed)
Lyn(h) = Lyn(h) (human, UniProt P07948 1-512)
Arg(h) = Arg(h) (human, UniProt P42684 38-1182, limits assumed)
EphB1(h) = target: T3, EphB1(h) (human, UniProt P54762 564-984, limits assumed)
T3 sequence (looked up): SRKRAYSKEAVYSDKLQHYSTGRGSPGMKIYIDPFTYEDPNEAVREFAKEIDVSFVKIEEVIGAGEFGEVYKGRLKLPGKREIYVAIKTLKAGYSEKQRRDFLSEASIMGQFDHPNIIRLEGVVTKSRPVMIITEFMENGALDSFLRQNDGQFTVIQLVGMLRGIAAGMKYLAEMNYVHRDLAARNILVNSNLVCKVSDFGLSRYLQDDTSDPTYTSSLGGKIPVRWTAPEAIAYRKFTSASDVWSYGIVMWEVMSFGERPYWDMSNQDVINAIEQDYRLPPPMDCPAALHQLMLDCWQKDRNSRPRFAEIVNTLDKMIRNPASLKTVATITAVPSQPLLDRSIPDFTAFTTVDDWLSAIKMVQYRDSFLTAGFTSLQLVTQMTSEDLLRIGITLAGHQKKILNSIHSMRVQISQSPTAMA

Fes(h) = Fes(h) (human, UniProt P07332 1-822, limits assumed)
CSK(h) = CSK(h) (human, UniProt P41240 1-450)
Abl(T315I)(h) = Abl(T315I)(h) (human, UniProt P00519 27-1130, limits assumed)
Flt3(D835Y)(h) = target: T4, Flt3(D835Y)(h) (human, UniProt P36888 564-993, limits assumed)
T4 sequence (looked up): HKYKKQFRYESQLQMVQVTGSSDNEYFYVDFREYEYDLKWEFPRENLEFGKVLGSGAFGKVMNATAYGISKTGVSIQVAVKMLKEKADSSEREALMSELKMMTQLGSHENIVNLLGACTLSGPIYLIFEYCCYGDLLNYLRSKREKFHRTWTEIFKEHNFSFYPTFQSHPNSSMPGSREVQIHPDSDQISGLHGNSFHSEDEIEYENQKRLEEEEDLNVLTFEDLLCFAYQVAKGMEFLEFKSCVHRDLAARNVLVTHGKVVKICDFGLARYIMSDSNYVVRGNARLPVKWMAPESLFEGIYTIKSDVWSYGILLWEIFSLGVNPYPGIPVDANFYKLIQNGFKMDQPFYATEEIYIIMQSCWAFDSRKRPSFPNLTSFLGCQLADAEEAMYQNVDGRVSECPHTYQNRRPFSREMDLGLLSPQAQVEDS

ROCK-II(h) = ROCK-II(h) (human, UniProt O75116 11-552, limits assumed)
Pim-1(h) = Pim-1(h) (human, UniProt P11309 1-313)
MELK(h) = MELK(h) (human, UniProt Q14680 1-340, limits assumed)
IRAK1(h) = IRAK1(h) (human, UniProt P51617 194-712, limits assumed)
EphA7(h) = EphA7(h) (human, UniProt Q15375 577-998, limits assumed)
Src(T341M)(h) = Src(T341M)(h) (human, UniProt P12931 1-536, limits assumed)

Binder | % activity, 100 µM (Aurora-B(h)) | % activity, 100 µM (MRCKβ(h)) | % activity, 100 µM (Met(M1268T)(h)) | % activity, 100 µM (EphA8(h)) | % activity, 100 µM (PTK5(h)) | % activity, 100 µM (IGF-1R(h)) | % activity, 100 µM (Lyn(h)) | % activity, 100 µM (Arg(h)) | % activity, 100 µM (EphB1(h)) | % activity, 100 µM (Fes(h)) | % activity, 100 µM (CSK(h)) | % activity, 100 µM (Abl(T315I)(h)) | % activity, 100 µM (Flt3(D835Y)(h)) | % activity, 100 µM (ROCK-II(h)) | % activity, 100 µM (Pim-1(h)) | % activity, 100 µM (MELK(h)) | % activity, 100 µM (IRAK1(h)) | % activity, 100 µM (EphA7(h)) | % activity, 100 µM (Src(T341M)(h))
FAKLAARLYRKALARQLGVAA [MMI-0300] | 128% | 83% | 255% | 93% | 132% | 119% | 69% | 72% | 44% | 20% | 49% | 97% | 80% | 74% | 8% | 16% | 95% | 159% | 70%
KAFAKLAARLYRKALARQLGVAA [MMI-0400] | 150% | 71% | 265% | 146% | 129% | 90% | 3% | 84% | 58% | 16% | 16% | 105% | 71% | 77% | 7% | 17% | 93% | 222% | 76%
